Reference: paper PMC9118860

Molecular target: MTS-LOV2^V416L (membrane-anchored Light-oxygen-voltage-sensing domain 2, V416L variant)

- 12xCSL-Luc luciferase reporter (RLU) in HEK293T cells, 48 h after blue light activation (0.05-s pulses for 1, 3 and 12 h), against LOV2^WT: 5 fold
Substance: Zdk1-N1ICD (Zdark 1 fused to the human NOTCH1 intracellular domain) (designed binder)
